Assay results from patent publication US20250297005A1 (FORTVITA BIOLOGICS SINGAPORE PTE, published 2025).

T1: human CLDN18.2 on cells (HEK293-hCLDN18.2, DAN-G-hCLDN18.2, NUGC-4) (human, UniProt P56856-2 1-261)
T1 construct: whole, on cells; Transfected full-length gene in HEK293 and DAN-G cells; endogenous in the gastric cancer line NUGC-4; also called Claudin18.2
T1 sequence (looked up): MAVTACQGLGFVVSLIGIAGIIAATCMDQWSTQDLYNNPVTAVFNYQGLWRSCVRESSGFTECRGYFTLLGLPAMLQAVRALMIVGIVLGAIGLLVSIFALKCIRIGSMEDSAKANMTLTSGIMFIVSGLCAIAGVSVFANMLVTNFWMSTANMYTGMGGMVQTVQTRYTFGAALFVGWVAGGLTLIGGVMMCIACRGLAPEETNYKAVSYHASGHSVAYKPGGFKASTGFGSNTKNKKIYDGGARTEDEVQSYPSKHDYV

B1: fully human antibody clone HB37A6 (hybridoma culture supernatant) (antibody, V domains shown)
VH: EVQLLDSGGGLVQPGGSLRLSCAASGFTFSSYVMSWVRQAPGKGLNWVSTISHSGGSTYYADSVKGRFTISRDNSKNTLYLQMNSLRAEDTAVYYCAIDAPYYDILTGYRYWGQGTLVTVSS
VL: not shown
notes: Tested as hybridoma supernatant from H2L2 transgenic mice; also called anti-CLDN18.2 antibody
B2: bispecific antibody 030 (anti-CLDN18.2 moiety HB37A6 x anti-CD3 moiety HzSP34.24) (bispecific antibody, human IgG1, kappa, lambda, L234A L235A)
heavy 1: not shown
light 1: not shown
heavy 2: not shown
light 2: QAVVTQEPSLTVSPGGTVTLTCRSSTGAVTTSNYANWVQQKPGQAPRGLIGGTNKRAPGVPARFSGSLLGDKAALTLLGAQPEDEAEYYCALWYSNLWVFGQGTKLTVLGQPKAAPSVTLFPPSSEELQANKATLVCLISDFYPGAVTVAWKADSSPVKAGVETTTPSKQSNNKYAASSYLSLTPEQWKSHRSYSCQVTHEGSTVEKTVAPTECS
B3: bispecific antibody 032 (anti-CLDN18.2 moiety HB37A6 x anti-CD3 moiety HzSP34.87) (bispecific antibody, human IgG1, kappa, lambda, L234A L235A)
heavy 1: not shown
light 1: not shown
heavy 2: not shown
light 2: B2 light 2

Assays:
[1] = molecular target: T1, human CLDN18.2 on cells …; assay: flow cytometry of hybridoma supernatant on HEK293-hCLDN18.2 cells
Experimental: In the present invention, H2L2 fully human antibody transgenic mice (purchased from Harbour BioMed) were immunized with the cells obtained in Example 1 (CHO-hCLDN18.2) by using the hybridoma technology. Spleen cells from the mice were then harvested and electrofused with myeloma cells. […] The test cells (HEK293-hCLDN18.2) obtained in Example 1 were counted, diluted to 1×10⁶ cells/mL, and then added to a U-bottom 96-well plate at 100 µL/well. The cells were centrifuged at 500 g for 5 min, and the cell medium was removed. The hybridoma culture supernatant in a 96-well plate was added to the U-bottom plate at 100 μL/well, the cells were resuspended, and the suspension was left to stand on ice for 30 min. The suspension was centrifuged at 500 g for 5 min, the supernatant was removed, and the cells were washed once with PBS. 100 μL of FITC-labeled anti-mouse Fab secondary antibody (1:500 dilution in PBS) was added to each well, and 100 μL of FITC-labeled anti-human Fab secondary antibody was added to the positive control antibody. The resulting mixture was incubated on ice in the dark for 30 min. The mixture was centrifuged at 500 g for 5 min, the supernatant was removed, and the cells were washed once with PBS. The cells were resuspended in 50 μL of 1×PBS, and the suspension was loaded for FACS assay. […]

[2] = molecular target: T1, human CLDN18.2 on cells …; assay: cell-based or functional assay

| Binder | binding result [1] | EC50 of in vitro T cell (PBMC) killing of gastric cancer cells NUGC-4 [2] | EC50 of in vitro T cell (PBMC) killing of pancreatic cancer cells DAN-G-hCLDN18.2 [2] |
| --- | --- | --- | --- |
| B1 | binds | – | – |
| B2 | – | < 1 pM | < 0.1 pM |
| B3 | – | < 1 pM | < 0.1 pM |
